Test results as given in the Immune Epitope Database (IEDB).

Tests used:
HLA-A*02:01 [1] = experiment: IEDB peptide-MHC binding, purified MHC/direct/fluorescence; filed as Kd, often an IC50 or EC50 that approximates it; ≥ and ≤ were set here for values at or beyond the usual limits of such assays; conditions: source organism: Giardia lamblia ATCC 50803
HLA-A*02:03 = experiment: as above; conditions: source organism: Giardia lamblia ATCC 50803
HLA-A*02:12 = experiment: as above; conditions: source organism: Giardia lamblia ATCC 50803
HLA-A*02:19 [2] = experiment: as above; conditions: source organism: Giardia lamblia ATCC 50803
HLA-A*03:01 [3] = experiment: as above; conditions: source organism: Giardia lamblia ATCC 50803
HLA-A*23:01 [4] = experiment: as above; conditions: source organism: Giardia lamblia ATCC 50803
HLA-A*24:03 [5] = experiment: as above; conditions: source organism: Giardia lamblia ATCC 50803
HLA-A*26:01 [6] = experiment: as above; conditions: source organism: Giardia lamblia ATCC 50803
HLA-A*29:02 [7] = experiment: as above; conditions: source organism: Giardia lamblia ATCC 50803
HLA-A*68:02 [8] = experiment: as above; conditions: source organism: Giardia lamblia ATCC 50803
HLA-B*15:01 [9] = experiment: as above; conditions: source organism: Giardia lamblia ATCC 50803
HLA-B*18:01 [10] = experiment: as above; conditions: source organism: Giardia lamblia ATCC 50803
HLA-B*27:03 [11] = experiment: as above; conditions: source organism: Giardia lamblia ATCC 50803
HLA-B*39:01 [12] = experiment: as above; conditions: source organism: Giardia lamblia ATCC 50803
HLA-B*46:01 [13] = experiment: as above; conditions: source organism: Giardia lamblia ATCC 50803
HLA-A*01:01 = experiment: IEDB peptide-MHC binding, purified MHC/competitive/fluorescence; filed as Kd, often an IC50 or EC50 that approximates it; ≥ and ≤ were set here for values at or beyond the usual limits of such assays
HLA-A*11:01 = experiment: as above
HLA-A*30:01 = experiment: as above
HLA-A*30:02 = experiment: as above
HLA-A*66:01 = experiment: as above
HLA-B*07:02 = experiment: as above; conditions: source organism: Giardia lamblia ATCC 50803
HLA-B*08:01 = experiment: as above
HLA-B*14:02 = experiment: as above
HLA-B*27:05 = experiment: as above
HLA-B*40:01 = experiment: as above
HLA-B*44:02 = experiment: as above
HLA-B*51:01 = experiment: as above
HLA-B*53:01 = experiment: as above
HLA-B*58:01 = experiment: as above
HLA-A*02:01 [14] = experiment: as above; conditions: source organism: Entamoeba histolytica HM-1:IMSS
HLA-A*02:19 [15] = experiment: as above; conditions: source organism: Entamoeba histolytica HM-1:IMSS
HLA-A*03:01 [16] = experiment: as above; conditions: source organism: Entamoeba histolytica HM-1:IMSS
HLA-A*23:01 [17] = experiment: as above; conditions: source organism: Entamoeba histolytica HM-1:IMSS
HLA-A*24:03 [18] = experiment: as above; conditions: source organism: Entamoeba histolytica HM-1:IMSS
HLA-A*26:01 [19] = experiment: as above; conditions: source organism: Entamoeba histolytica HM-1:IMSS
HLA-A*29:02 [20] = experiment: as above; conditions: source organism: Entamoeba histolytica HM-1:IMSS
HLA-A*68:02 [21] = experiment: as above; conditions: source organism: Entamoeba histolytica HM-1:IMSS
HLA-B*15:01 [22] = experiment: as above; conditions: source organism: Entamoeba histolytica HM-1:IMSS
HLA-B*15:17 = experiment: as above; conditions: source organism: Entamoeba histolytica HM-1:IMSS
HLA-B*18:01 [23] = experiment: as above; conditions: source organism: Entamoeba histolytica HM-1:IMSS
HLA-B*27:03 [24] = experiment: as above; conditions: source organism: Entamoeba histolytica HM-1:IMSS
HLA-B*39:01 [25] = experiment: as above; conditions: source organism: Entamoeba histolytica HM-1:IMSS
HLA-B*46:01 [26] = experiment: as above; conditions: source organism: Entamoeba histolytica HM-1:IMSS
HLA-B*57:01 = experiment: as above; conditions: source organism: Entamoeba histolytica HM-1:IMSS
[27] = source organism: Giardia lamblia ATCC 50803
[28] = source organism: Entamoeba histolytica HM-1:IMSS

For MTFPLHFRS, the Kd (HLA-A*02:01 [1]) was at least 20 µM, the Kd (HLA-A*02:03) was at least 20 µM and the Kd (HLA-A*02:12) was at least 20 µM. The Kd (HLA-A*02:19 [2]) was at least 20 µM, the Kd (HLA-A*03:01 [3]) was at least 20 µM and the Kd (HLA-A*23:01 [4]) was at least 20 µM. It also gave a Kd (HLA-A*24:03 [5]) of at least 20 µM, a Kd (HLA-A*26:01 [6]) of at least 20 µM and a Kd (HLA-A*29:02 [7]) of 0.028 µM. The Kd (HLA-A*68:02 [8]) was at most 0.001 µM, the Kd (HLA-B*15:01 [9]) was at least 20 µM and the Kd (HLA-B*18:01 [10]) was at least 20 µM. It also gave a Kd (HLA-B*27:03 [11]) of at least 20 µM, a Kd (HLA-B*39:01 [12]) of at least 20 µM and a Kd (HLA-B*46:01 [13]) of at least 20 µM. For the same sequence, the Kd (HLA-A*01:01; [27]) was at least 5 µM, the Kd (HLA-A*11:01; [27]) was 0.113 µM and the Kd (HLA-A*30:01; [27]) was at least 5 µM. The Kd (HLA-A*30:02; [27]) was at least 5 µM, the Kd (HLA-A*66:01; [27]) was at least 5 µM and the Kd (HLA-B*07:02) was at least 5 µM. For the same sequence, the Kd (HLA-B*08:01; [27]) was at least 5 µM, the Kd (HLA-B*14:02; [27]) was at least 5 µM and the Kd (HLA-B*27:05; [27]) was at least 5 µM. It also gave a Kd (HLA-B*40:01; [27]) of at least 5 µM, a Kd (HLA-B*44:02; [27]) of at least 5 µM and a Kd (HLA-B*51:01; [27]) of at least 5 µM. For the same sequence, the Kd (HLA-B*53:01; [27]) was at least 5 µM and the Kd (HLA-B*58:01; [27]) was at least 5 µM.
With NPAACSYMV the Kd (HLA-A*01:01; [28]) was at least 5 µM, the Kd (HLA-A*02:01 [14]) was at least 20 µM and the Kd (HLA-A*02:19 [15]) was at least 20 µM. It also gave a Kd (HLA-A*03:01 [16]) of at least 20 µM, a Kd (HLA-A*11:01; [28]) of at least 5 µM and a Kd (HLA-A*23:01 [17]) of at least 20 µM. It also gave a Kd (HLA-A*24:03 [18]) of at least 20 µM, a Kd (HLA-A*26:01 [19]) of at least 20 µM and a Kd (HLA-A*29:02 [20]) of 0.122 µM. For the same sequence, the Kd (HLA-A*30:01; [28]) was at least 5 µM, the Kd (HLA-A*30:02; [28]) was at least 5 µM and the Kd (HLA-A*66:01; [28]) was at least 5 µM. It also gave a Kd (HLA-A*68:02 [21]) of 0.0283 µM, a Kd (HLA-B*08:01; [28]) of at least 5 µM and a Kd (HLA-B*14:02; [28]) of at least 5 µM. It also gave a Kd (HLA-B*15:01 [22]) of at least 20 µM, a Kd (HLA-B*15:17) of at least 20 µM and a Kd (HLA-B*18:01 [23]) of at least 20 µM. For the same sequence, the Kd (HLA-B*27:03 [24]) was at least 20 µM, the Kd (HLA-B*27:05; [28]) was at least 5 µM and the Kd (HLA-B*39:01 [25]) was 0.232 µM. The Kd (HLA-B*40:01; [28]) was at least 5 µM, the Kd (HLA-B*44:02; [28]) was at least 5 µM and the Kd (HLA-B*46:01 [26]) was at least 20 µM. For the same sequence, the Kd (HLA-B*51:01; [28]) was at least 20 µM, the Kd (HLA-B*53:01; [28]) was at least 5 µM and the Kd (HLA-B*57:01) was at least 20 µM. For the same sequence, the Kd (HLA-B*58:01; [28]) was at least 5 µM.
